In patent publication US20220289810A1:

Target: bovine FSH hormone receptor expressed on HEK 293T cells (bovine) (UniProt P35376)
Assay: cell-based or functional assay

Chain of UniProt P35376 (P35376 18-695): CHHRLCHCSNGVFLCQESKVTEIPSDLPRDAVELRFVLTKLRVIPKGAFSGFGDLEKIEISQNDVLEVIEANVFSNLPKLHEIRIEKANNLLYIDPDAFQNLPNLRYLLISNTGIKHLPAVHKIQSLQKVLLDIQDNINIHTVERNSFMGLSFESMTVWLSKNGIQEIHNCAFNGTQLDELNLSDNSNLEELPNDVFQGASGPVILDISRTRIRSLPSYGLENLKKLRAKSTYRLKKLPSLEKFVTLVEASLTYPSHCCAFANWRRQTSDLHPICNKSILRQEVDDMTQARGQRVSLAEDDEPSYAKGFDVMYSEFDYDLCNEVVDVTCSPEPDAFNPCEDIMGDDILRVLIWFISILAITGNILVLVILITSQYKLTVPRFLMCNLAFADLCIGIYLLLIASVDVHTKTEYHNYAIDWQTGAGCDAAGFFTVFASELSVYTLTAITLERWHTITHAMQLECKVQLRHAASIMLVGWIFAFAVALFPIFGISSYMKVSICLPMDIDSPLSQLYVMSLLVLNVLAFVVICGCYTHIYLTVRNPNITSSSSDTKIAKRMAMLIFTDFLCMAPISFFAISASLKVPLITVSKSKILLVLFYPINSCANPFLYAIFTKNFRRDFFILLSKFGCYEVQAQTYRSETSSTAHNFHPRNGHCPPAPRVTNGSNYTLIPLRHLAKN

Row | biological activity in vitro by stimulation of luciferase activity | Estimated potency in vitro (sample 5G) | in vitro FSH activity (CRE-luciferase reporter, HEK 293T cells with bovine FSH receptor); affinity purified construct #5 from transiently transfected CHO cells | Substance
1 | 13300 IU/mg | – | – | recombinant single chain equine chorionic gonadotropin BetaCTP-CTP-Alpha (CONSTRUCT #4) (ligand)
2 | 4770 IU/mg | – | – | recombinant single chain equine chorionic gonadotropin CTP-BetaCTP-CTP-Alpha (CONSTRUCT #6) (ligand)
3 | 4010 IU/mg | 6200 IU/mg | 61 IU | recombinant single chain equine chorionic gonadotropin NTP-BetaCTP-CTP-Alpha (CONSTRUCT #5) (ligand)
